{"source": "paper PMC10229621", "data": [{"target": "T4 capsid (empty HocΔSocΔ head from the 10-amber.13-amber.HocΔ.SocΔ T4 mutant) (bacteriophage T4) (UniProt P19896)", "assay": "co-sedimentation", "values": [{"substance": "Cpf1-Soc", "stoichiometry N (molecules per capsid)": 450}, {"substance": "Cre-Hoc", "stoichiometry N (molecules per capsid)": 95}, {"substance": "Cre-Soc", "stoichiometry N (molecules per capsid)": 630}, {"substance": "GFP-Soc", "stoichiometry N (molecules per capsid)": 660}, {"substance": "NLS-Cas9-Soc", "stoichiometry N (molecules per capsid)": 550}, {"substance": "RGD-Hoc", "stoichiometry N (molecules per capsid)": 85}, {"substance": "Soc-RGD", "stoichiometry N (molecules per capsid)": 710}, {"substance": "Soc-TAT", "stoichiometry N (copies per capsid)": 520, "stoichiometry N (molecules per capsid)": 750}, {"substance": "β-Gal-Soc", "stoichiometry N (molecules per capsid)": 320}]}]}
